Measurements published in publication PMC3576412.

Key:
[1] = target: Im9 (Escherichia coli) (UniProt P13479); details: cited from earlier work
[2] = target: DNase domain of colicin E9, E9 (S3C) (E. coli); assay: dynamic force spectroscopy (AFM)

k0F off (outer barrier) [2] | Molecule | Kd [1]
– | Colicin E9 DNase domain (from UniProt P09883) | 0.016 pM
7.6 s⁻¹ | Im2 (D33A), pulled from residue 81 (natural protein) MELKHSISDYTEAEFLEFVKKIARAEGATEEDANKLVREFERLTEHPDGSDLIYYPRDDREDSPEGIVKEIKEWRAANGKCGFKQG | –
